Test results taken from article PMC10208892 (The Journal of Biological Chemistry, 2023).

Columns and labels:
[1] = target: T1, VPS33B, untagged, expressed in yeast (human, UniProt Q9H267 1-617); assay: co-IP
T1 sequence: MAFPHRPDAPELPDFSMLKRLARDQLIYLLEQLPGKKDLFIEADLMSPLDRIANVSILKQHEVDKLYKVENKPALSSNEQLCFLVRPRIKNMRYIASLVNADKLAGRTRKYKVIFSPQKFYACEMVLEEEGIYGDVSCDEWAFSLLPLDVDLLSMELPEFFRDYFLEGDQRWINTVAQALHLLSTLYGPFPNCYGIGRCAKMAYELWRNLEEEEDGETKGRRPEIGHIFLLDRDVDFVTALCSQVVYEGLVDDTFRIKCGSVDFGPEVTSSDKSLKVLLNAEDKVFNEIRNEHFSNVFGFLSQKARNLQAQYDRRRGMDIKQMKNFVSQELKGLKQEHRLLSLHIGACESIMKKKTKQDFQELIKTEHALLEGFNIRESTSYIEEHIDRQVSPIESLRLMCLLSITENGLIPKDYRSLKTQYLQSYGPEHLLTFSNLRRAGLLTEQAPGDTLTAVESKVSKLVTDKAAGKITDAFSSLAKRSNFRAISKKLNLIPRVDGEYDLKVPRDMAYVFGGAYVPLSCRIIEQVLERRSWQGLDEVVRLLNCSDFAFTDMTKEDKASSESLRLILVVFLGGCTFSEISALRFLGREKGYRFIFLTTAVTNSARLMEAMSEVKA

[2] = target: T2, VPS33B with C-terminal biotinylation signal (human, UniProt Q9H267 1-617, biotin on lysine 41 of the biotinylation signal); assay: co-IP
T2 sequence: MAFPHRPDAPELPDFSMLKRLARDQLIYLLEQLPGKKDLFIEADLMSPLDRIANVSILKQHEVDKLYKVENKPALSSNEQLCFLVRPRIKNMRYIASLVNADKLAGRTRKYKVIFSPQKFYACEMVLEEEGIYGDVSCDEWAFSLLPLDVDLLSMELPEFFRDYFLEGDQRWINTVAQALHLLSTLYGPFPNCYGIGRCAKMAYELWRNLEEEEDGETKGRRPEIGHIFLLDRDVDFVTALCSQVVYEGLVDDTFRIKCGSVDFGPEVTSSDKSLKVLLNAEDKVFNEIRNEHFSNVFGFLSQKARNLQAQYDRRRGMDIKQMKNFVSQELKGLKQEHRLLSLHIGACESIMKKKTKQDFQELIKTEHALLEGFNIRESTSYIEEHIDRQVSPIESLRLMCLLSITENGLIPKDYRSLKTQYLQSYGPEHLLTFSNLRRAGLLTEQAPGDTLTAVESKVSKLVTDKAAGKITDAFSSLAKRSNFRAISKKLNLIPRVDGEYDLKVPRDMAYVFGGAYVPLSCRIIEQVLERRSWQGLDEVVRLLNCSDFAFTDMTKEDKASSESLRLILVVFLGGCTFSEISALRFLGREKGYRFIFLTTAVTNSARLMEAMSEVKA

VPS33B S243F = target: T3, VPS33B S243F (human, UniProt Q9H267 1-617, S243F); assay: co-IP
T3 sequence: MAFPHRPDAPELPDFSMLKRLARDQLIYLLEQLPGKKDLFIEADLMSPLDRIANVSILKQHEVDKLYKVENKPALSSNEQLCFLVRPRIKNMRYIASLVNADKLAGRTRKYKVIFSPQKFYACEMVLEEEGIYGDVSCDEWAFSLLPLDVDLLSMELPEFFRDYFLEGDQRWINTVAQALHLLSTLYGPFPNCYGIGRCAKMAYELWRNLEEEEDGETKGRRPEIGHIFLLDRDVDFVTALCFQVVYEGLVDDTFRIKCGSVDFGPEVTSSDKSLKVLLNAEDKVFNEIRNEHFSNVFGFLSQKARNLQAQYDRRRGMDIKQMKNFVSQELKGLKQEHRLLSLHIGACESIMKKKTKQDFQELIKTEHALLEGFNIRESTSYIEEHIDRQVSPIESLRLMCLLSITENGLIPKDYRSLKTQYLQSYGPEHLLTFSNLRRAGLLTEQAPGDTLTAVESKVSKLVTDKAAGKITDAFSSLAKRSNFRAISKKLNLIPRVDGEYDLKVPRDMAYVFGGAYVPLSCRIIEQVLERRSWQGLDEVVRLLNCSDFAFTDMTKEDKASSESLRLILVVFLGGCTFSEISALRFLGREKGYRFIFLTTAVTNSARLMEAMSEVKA

VPS33B H344D = target: T4, VPS33B H344D (human, UniProt Q9H267 1-617, H344D); assay: co-IP
T4 sequence: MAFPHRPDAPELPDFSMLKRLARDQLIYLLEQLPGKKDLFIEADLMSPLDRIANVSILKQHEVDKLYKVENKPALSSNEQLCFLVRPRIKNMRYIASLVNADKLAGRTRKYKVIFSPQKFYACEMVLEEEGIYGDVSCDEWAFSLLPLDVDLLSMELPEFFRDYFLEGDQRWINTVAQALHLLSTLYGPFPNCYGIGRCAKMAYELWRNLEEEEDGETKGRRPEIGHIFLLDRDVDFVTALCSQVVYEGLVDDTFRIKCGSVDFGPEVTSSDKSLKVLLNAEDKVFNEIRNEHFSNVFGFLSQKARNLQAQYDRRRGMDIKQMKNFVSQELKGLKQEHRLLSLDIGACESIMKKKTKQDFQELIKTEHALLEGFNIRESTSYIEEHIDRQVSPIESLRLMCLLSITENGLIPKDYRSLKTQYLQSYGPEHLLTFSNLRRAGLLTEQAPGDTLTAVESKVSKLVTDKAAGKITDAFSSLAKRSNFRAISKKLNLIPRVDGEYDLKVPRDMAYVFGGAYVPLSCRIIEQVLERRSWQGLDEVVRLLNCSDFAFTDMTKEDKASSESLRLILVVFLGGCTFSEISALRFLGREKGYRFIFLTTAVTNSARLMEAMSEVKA

[3] = target: T1, VPS33B, untagged, expressed in yeast; assay: native gel or EMSA
[4] = target: T5, HA-VPS33B, expressed in yeast (human, UniProt Q9H267 1-617); assay: co-IP
T5 sequence: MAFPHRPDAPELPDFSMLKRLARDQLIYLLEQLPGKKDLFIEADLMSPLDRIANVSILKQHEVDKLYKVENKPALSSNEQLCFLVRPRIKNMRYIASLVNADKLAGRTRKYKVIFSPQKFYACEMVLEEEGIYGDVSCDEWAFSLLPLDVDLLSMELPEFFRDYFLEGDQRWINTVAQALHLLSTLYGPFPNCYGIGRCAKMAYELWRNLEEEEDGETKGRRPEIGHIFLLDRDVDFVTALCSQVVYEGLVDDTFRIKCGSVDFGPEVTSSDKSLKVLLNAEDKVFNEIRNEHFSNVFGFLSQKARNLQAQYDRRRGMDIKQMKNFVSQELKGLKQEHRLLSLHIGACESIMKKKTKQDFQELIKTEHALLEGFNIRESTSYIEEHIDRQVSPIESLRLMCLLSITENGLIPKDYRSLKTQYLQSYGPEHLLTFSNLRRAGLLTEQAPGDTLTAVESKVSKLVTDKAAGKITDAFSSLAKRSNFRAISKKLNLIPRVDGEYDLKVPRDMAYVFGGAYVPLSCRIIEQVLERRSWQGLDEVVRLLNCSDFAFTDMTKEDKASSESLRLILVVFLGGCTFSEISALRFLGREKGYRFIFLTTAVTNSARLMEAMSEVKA

B1: VPS16B(143–316)-3xFLAG (domain or fragment)
chain: RPKGEYRDYSNDWSPSDTVRRLRKGKVCSLERFRSLQDKLQLLEEAVSMHDGNVITAVLIFLKRTLSKEILFRELEVRQVALRHLIHFLKEIGDQKLLLDLFRFLDRTEELALSHYREHLNIQDPDKRKEFLKTCVGLPFSAEDSAHIQDHYTLLERQIIIEANDRHLESAGQT
[1]
  binding result: binds

B2: VPS16B(143–493)-3xFLAG (domain or fragment)
chain: RPKGEYRDYSNDWSPSDTVRRLRKGKVCSLERFRSLQDKLQLLEEAVSMHDGNVITAVLIFLKRTLSKEILFRELEVRQVALRHLIHFLKEIGDQKLLLDLFRFLDRTEELALSHYREHLNIQDPDKRKEFLKTCVGLPFSAEDSAHIQDHYTLLERQIIIEANDRHLESAGQTEIFRKHPRKASILNMPLVTTLFYSCFYHYTEAEGTFSSPVNLKKTFKIPDKQYVLTALAARAKLRAWNDVDALFTTKNWLGYTKKRAPIGFHRVVEILHKNNAPVQILQEYVNLVEDVDTKLNLATKFKCHDVVIDTYRDLKDRQQLLAYRSKVDKGSAEEEKIDALLSSSQIRWKN
[1]
  binding result: binds

B3: VPS16B-3xFLAG, expressed in yeast (natural protein)
chain: MNRTKGDEEEYWNSSKFKAFTFDDEDDELSQLKESKRAVNSLRDFVDDDDDDDLERVSWSGEPVGSISWSIRETAGNSGSTHEGREQLKSRNSFSSYAQLPKPTSTYSLSSFFRGRTRPGSFQSLSDALSDTPAKSYAPELGRPKGEYRDYSNDWSPSDTVRRLRKGKVCSLERFRSLQDKLQLLEEAVSMHDGNVITAVLIFLKRTLSKEILFRELEVRQVALRHLIHFLKEIGDQKLLLDLFRFLDRTEELALSHYREHLNIQDPDKRKEFLKTCVGLPFSAEDSAHIQDHYTLLERQIIIEANDRHLESAGQTEIFRKHPRKASILNMPLVTTLFYSCFYHYTEAEGTFSSPVNLKKTFKIPDKQYVLTALAARAKLRAWNDVDALFTTKNWLGYTKKRAPIGFHRVVEILHKNNAPVQILQEYVNLVEDVDTKLNLATKFKCHDVVIDTYRDLKDRQQLLAYRSKVDKGSAEEEKIDALLSSSQIRWKN
[2]
  binding result: binds
VPS33B S243F
  binding result: binds
VPS33B H344D
  binding result: binds
[3]
  binding result: binds

B4: HA-VPS16B-3xFLAG, expressed in yeast (natural protein)
chain: MNRTKGDEEEYWNSSKFKAFTFDDEDDELSQLKESKRAVNSLRDFVDDDDDDDLERVSWSGEPVGSISWSIRETAGNSGSTHEGREQLKSRNSFSSYAQLPKPTSTYSLSSFFRGRTRPGSFQSLSDALSDTPAKSYAPELGRPKGEYRDYSNDWSPSDTVRRLRKGKVCSLERFRSLQDKLQLLEEAVSMHDGNVITAVLIFLKRTLSKEILFRELEVRQVALRHLIHFLKEIGDQKLLLDLFRFLDRTEELALSHYREHLNIQDPDKRKEFLKTCVGLPFSAEDSAHIQDHYTLLERQIIIEANDRHLESAGQTEIFRKHPRKASILNMPLVTTLFYSCFYHYTEAEGTFSSPVNLKKTFKIPDKQYVLTALAARAKLRAWNDVDALFTTKNWLGYTKKRAPIGFHRVVEILHKNNAPVQILQEYVNLVEDVDTKLNLATKFKCHDVVIDTYRDLKDRQQLLAYRSKVDKGSAEEEKIDALLSSSQIRWKN
[4]
  binding result: binds
